# From patent US20230061838A1 (SORRENTO THERAPEUTICS, published 2023)
# T1: CD20 antigen (UniProtKB P11836 - gene MS4A1), on Daudi cells (Homo sapiens, UniProt P11836 1-297)
# T1 sequence: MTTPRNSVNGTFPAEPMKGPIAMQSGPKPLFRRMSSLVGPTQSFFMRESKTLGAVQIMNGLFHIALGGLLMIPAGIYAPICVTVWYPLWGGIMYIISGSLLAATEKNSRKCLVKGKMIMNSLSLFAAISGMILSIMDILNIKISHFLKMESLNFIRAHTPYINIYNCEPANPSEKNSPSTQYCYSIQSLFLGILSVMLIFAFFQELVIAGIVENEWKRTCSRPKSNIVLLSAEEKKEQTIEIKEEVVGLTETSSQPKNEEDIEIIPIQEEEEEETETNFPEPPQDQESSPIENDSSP
# Molecular target: T1, CD20 antigen (UniProtKB P11836 - gene …)
# Test: cell-based or functional assay
binder,measurement,value
"anti-CD20 dimeric antigen receptor (CD20 DAR), expressed on primary human T cells (other) heavy: QVQLQQPGAELVKPGASVKMSCKASGYTFTSYNMHWVKQTPGRGLEWIGAIYPGNGDTSYNQKFKGKATLTADKSSSTAYMQLSSLTSEDSAVYYCARSTYYGGDWYFNVWGAGTTVTVSAASTKGPSVFPLAPSSKSTSGGTAALGCLVKDYFPEPVTVSWNSGALTSGVHTFPAVLQSSGLYSLSSVVTVPSSSLGTQTYICNVNHKPSNTKVDKRVEPKSCDKTHTPRKIEVMYPPPYLDNEKSNGTIIHVKGKHLCPSPLFPGPSKPFWVLVVVGGVLACYSLLVTVAFIIFWVKRGRKKLLYIFKQPFMRPVQTTQEEDGCSCRFPEEEEGGCELRVKFSRSADKGERRRGKGHDGLYQGLSTATKDTYDALHMQALPPR light: QIVLSQSPAILSASPGEKVTMTCRASSSVSYIHWFQQKPGSSPKPWIYATSNLASGVPVRFSGSGSGTSYSLTISRVEAEDAATYYCQQWTSNPPTFGGGTKLEIKRTVAAPSVFIFPPSDEQLKSGTASVVCLLNNFYPREAKVQWKVDNALQSGNSQESVTEQDSKDSTYSLSSTLTLSKADYEKHKVYACEVTHQGLSSPVTKSFNRGEC",fold-change of expansion over four days of co-culture,> 10 fold
